Measurements: the supplement of paper PMC11780869

Test system: Bacillus subtilis
Experiment: cleaved RNA product abundance (RNA/gDNA barcode ratio) relative to median wild-type variant (ratio to wild type); higher = more accumulation of the downstream cleavage product
Procedure: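 MPRA in B. subtilis. Mutagenized RNase Y cleavage-site regions (9% mutation rate) were inserted into a barcoded reporter mRNA (truncated aprE or tetM). Cells were grown in LB at 37°C to OD600 0.3. The cleaved RNA isoform was gel-purified and its barcodes counted; the RNA:gDNA barcode ratio was normalised to the median wild-type variant, and the median over barcodes is reported per variant. The printed sequence is the variable window only; the reporter flanks are not printed.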

[1] = experiment (reporter, strain, medium): exp 8a: truncated aprE reporter, strain BJT201 with 2% xylose (RNase J1 expressed), cleavage site: glnRA (positions -5 to +31 mutated)
[2] = experiment (reporter, strain, medium): exp 2b: truncated aprE reporter, strain BJT200, cleavage site: cggR-gapA (positions -7 to +36 mutated)
[3] = experiment (reporter, strain, medium): exp 4a: truncated aprE reporter, strain BJT201 with 2% xylose (RNase J1 expressed), cleavage site: cggR-gapA (positions -7 to +36 mutated)
[4] = experiment (reporter, strain, medium): exp 6: tetM reporter, strain 168, cleavage site: cggR-gapA (positions -7 to +36 mutated)

Row | Sequence | cleaved RNA product abundance [1] | cleaved RNA product abundance [2] | cleaved RNA product abundance [3] | also measured
1 | CGACATGTCCCGCTTCTTTCATTAATCCGTTAGCAACTGTGTTGCTATATACATTTACCGTTTAAGAGGAGGAAT | 0.537 | – | – | –
2 | ACAGACGAAGGAGCCGCAAAGAAGTTATTAAAGGATGAATAATCCCTCTATATAAATATCTCTCACTTATTTAAA | – | 0.132 | 0.18 | –
3 | CGACATGTCCCGCTTCTTTCATTAATCCGTGAGCAACTGTTTTGCTATATACATTTACCTTTTAAGAGGAGGAAT | 0.549 | – | – | –
4 | ACAGACGAAGGAGCCGCAAAGTAGTTATTAAGGGATTAATAATCCCTCAATATAAATATCTCTCACTTATTTAAA | – | – | 1.14 | –
5 | ACAGACGAAGGAGCCGCAAAGAAGTTATTAAGGGATGAATAAATCCTCAATATAAATATCTCTCACTTATTTAAA | – | – | 0.306 | –
6 | ACAGACGAAGGAGCCGCAAAGTAGTTATTAAGGGATGAATAATCACTCAATATAAATATCTCTCACTTATTTAAA | – | 0.11 | 0.183 | –
7 | ACAGACGAAGGAGCCGCAAAGAAGTTATTAAGGGATAAATAATCCCTCAATATACATATCTCTCACTTATTTAAA | – | – | 0.699 | –
8 | ACAGACGAAGGAGCCGCGAAGAAGTTATGAAGGGATGAATAATCCCTCAATATAAATATCTCTCACTTATTTAAA | – | – | 0.248 | –
9 | ACAGACGAAGGAGCCGCAAAGAAATTATTAAGGGATGGATAATCCCTCAATATAAATATCTCTCACTTATTTAAA | – | – | 0.62 | –
10 | ACAGACGAAGGAGCCGCAAAGAGCTTATTAAGGGATGAATAATCCCTCAATATAAATATCTCTCACTTATTTAAA | – | – | 0.743 | –
11 | ACAGACGAAGGAGCCGCAAAGAAGTTATTAAGGGATGACTAATCCCTCAAAATAAATATCTCTCACTTATTTAAA | – | 0.192 | – | –
12 | ACAGACGAAGGAGCCGCACAGAAGTTATTAAGGGATTAATAATCACTCAATATAAATATCTCTCACTTATTTAAA | – | – | 0.293 | –
13 | CGACATGTCCCGCTTCTTTCATTAATCCGTTAGCAACTGTTTTGCTATATACATTAACCGTTTAAGAGGAGGAAT | 0.934 | – | – | –
14 | ACAGACGAAGGAGCCGCAAATAAGTTATTAAGGGATGAATAATCTCTCAATATAAATATCTCTCACTTATTTAAA | – | 0.613 | 0.758 | –
15 | CGACATGTCCCGCTTCTTTCATTAATCCGTTAGCAACTGTTTTACTATATACAATTACCTTTTAAGAGGAGGAAT | 0.613 | – | – | –
16 | ACAGACGAAGGAGCCGCAAAGAAGTTATTTAGGGATAAATAATCCCTCAATATAAATATCTCTCACTTATTTAAA | – | 0.577 | 0.696 | –
17 | CGACATGTCCCGCTTCTTTCATTAATCCGTTTGCAACTGTTTTGCTACATACATTTACCTTTTAAGAGGAGGAAT | 0.623 | – | – | –
18 | ACAGACGAAGGAGCCGCACAGAAGTTATTAAGGGATGAATAATCCCTAAATATAAATATCTCTCACTTATTTAAA | – | – | 0.586 | –
19 | CGACATGTCCCGCTTCTTTCATTATTCCGTTAGCAGCTGTTTTGCTATATACATTTACCTTTTAAGAGGAGGAAT | 1.16 | – | – | –

Row | Sequence | cleaved RNA product abundance [1] | cleaved RNA product abundance [2] | cleaved RNA product abundance [3] | also measured
20 | ACAGACGAAGGAGCCGCAAAGTAGTTATTAAGGGATGAATAATCCCTCCATATAAATATCTCTCACTTATTTAAA | – | 0.299 | 0.487 | –
21 | ACAGACGAAGGAGCCGCAAATAAGTTATTAAGGGATGAATTATCCCTCAATATAAATATCTCTCACTTATTTAAA | – | 0.711 | 0.737 | –
22 | ACAGACGAAGGAGCCGCACAGAAGTTATTAAGGGATGAATAATCCCTCAATATAAATATCTCTCACTTATTTAAA | – | 0.962 | 1.04 | cleaved RNA product abundance [4]: 1.07
23 | ACAGACGAAGGAGCCGCAAAGAAGTTATTAAGGGATGAATAATCCCCTAATATAAATATCTCTCACTTATTTAAA | – | – | 1.25 | –
24 | ACAGACGAAGGAGCCGCAAAGAAGTTGTTAAGCGATGAATAATCCCTCAATATAAATATCTCTCACTTATTTAAA | – | – | 0.0544 | –
25 | ACAGACGAAGGAGCCGCAAAGAAGTTATCAAGGGATGAATAATCACTCAATATAAATATCTCTCACTTATTTAAA | – | 0.123 | 0.139 | –
26 | ACAGACGAAGGAGCCGCAAAGAAGTTATTAAGGGATGAATTATCCCTCAATATAAATACCTCTCACTTATTTAAA | – | 0.469 | – | –
27 | CGACATGTCCCGCTTCTTTCATTAATCCGATAGCAACTGCTTTGCTATATACATTTACCTTTTAAGAGGAGGAAT | 0.492 | – | – | –
28 | ACAGACGAAGGAGCCGCAAAGAAGTTATTAAGGGATGCATAATCCCTCAATATAAATAGCTCTCACTTATTTAAA | – | – | 0.45 | –
29 | CGACATGTCCCGCTTCTTTCATTAATCCTTTAGCAACAGTTTTGCTATATACATTTACCTTTTAAGAGGAGGAAT | 0.115 | – | – | –
30 | CGACATGTCCCGCTTCTTTCATTAATCAGTTAGCAACTGTTTTGCTATATACATTTACCTTTTAAGAGGAGGAAT | 0.763 | – | – | –
31 | CGACATGTCCCGCTTCTTTCATTAATCCGTTAGCAACTGTTTTGCTATATTCATTTACCTTTTAAGAGGAGGAAT | 0.233 | – | – | –
32 | ACAGACGAAGGAGCCGCGAAGAAGTTATTAAGGGATTAATAATCCCTCAATATAAATATCTCTCACTTATTTAAA | – | – | 1.19 | –
33 | ACAGACGAAGGAGCCGCAAAGAAGTTAGTAAGGGATGAATAATCCCTCAATATAAATATCTCTCACTTATTTAAA | – | 0.306 | 0.443 | cleaved RNA product abundance [4]: 0.559
34 | CGACATGTCCCGCTTCTTTCATTAATCAGTTAGCAACTGTTTTACTATATACATTTACCTTTTAAGAGGAGGAAT | 0.611 | – | – | –
35 | CGACATGTCCCGCTTCTTTCATTAATCCGTTAGCAACTGTTTGGCTATATACATTTACATTTTAAGAGGAGGAAT | 0.339 | – | – | –
36 | ACAGACGAAGGAGCCGCAAAGAATTTAATAAGGGATGAATAATCCCTCAATATAAATATCTCTCACTTATTTAAA | – | 0.25 | 0.309 | –
37 | ACAGACGAAGGAGCCGCAAAGAAGTTATTAAGGGATGAATAATACCTAAATATAAATATCTCTCACTTATTTAAA | – | 0.12 | 0.132 | –
38 | ACAGACGAAGGAGCCGCAAAGTAGTTATTAAGGGATCAATAATCCCTCAATATAAATATCTCTCACTTATTTAAA | – | – | 1.25 | –

Row | Sequence | cleaved RNA product abundance [1] | cleaved RNA product abundance [2] | cleaved RNA product abundance [3] | also measured
39 | CGACATGTCCCGCTTCTTTCATTAATCCGTAAGCAACTGTTTCGCTATATACATTTACCTTTTAAGAGGAGGAAT | 0.145 | – | – | –
40 | ACAGACGAAGGAGCCGCAAAGAAGTTATTAAGGGATGAATAATCTCTCTATATAAATATCTCTCACTTATTTAAA | – | – | 0.292 | –
41 | ACAGACGAAGGAGCCGCAAAGAAGGTATTAAAGGATGAATAATCCCTCAATATAAATATCTCTCACTTATTTAAA | – | – | 0.189 | –
42 | CGACATGTCCCGCTTCTTTCATTAATCCGTTAGCAACTGTTTTGCTATATACAATTGCCTTTTAAGAGGAGGAAT | 0.532 | – | – | –
43 | ACAGACGAAGGAGCCGCAAAGCAGTTATTAAGGGATGAATATTCCCTCAATATAAATATCTCTCACTTATTTAAA | – | 0.832 | 0.898 | –
44 | ACAGACGAAGGAGCCGCAAAGAAGTTATTAAGGGGTGAATACTCCCTCAATATAAATATCTCTCACTTATTTAAA | – | – | 0.256 | –
45 | CGACATGTCCCGCTTCTTTCATTAATCGGTTAGCAACAGTTTTGCTATATACATTTACCTTTTAAGAGGAGGAAT | 0.927 | – | – | –
46 | ACAGACGAAGGAGCCGCAAAGAAGTTATAAAGGGATGAATAATCCCTCACTATAAATATCTCTCACTTATTTAAA | – | – | 0.322 | –
47 | ACAGACGAAGGAGCCGCAAAGAAGTTATTAAGGAATGAGTAATCCCTCAATATAAATATCTCTCACTTATTTAAA | – | 0.119 | 0.131 | –
48 | CGACATGTCCCGCTTCTTTCATTAATCCGTAAGCAACTGTTTTGCTATATACATTTCCCTTTTAAGAGGAGGAAT | 0.212 | – | – | –
49 | ACAGACGAAGGAGCCGCAAAGAAGTTATTAAGGGATGAATAATCCCTCAATATAAATATCTCTCGCTTATTTAAA | – | – | 0.778 | –
50 | CGACATGTCCCGCTTCTTTCATTAATTCGTTAGCAACAGTTTTGCTATATACATTTACCTTTTAAGAGGAGGAAT | 0.913 | – | – | –
51 | ACAGACGAAGGAGCCGCAAAAAAGTTATTAAGGGATGAATAGTCCCTCAATATAAATATCTCTCACTTATTTAAA | – | 0.786 | 0.961 | –
52 | CGACATGTCCCGCTTCTTTCATTAATCCGTTAGCAAATGTTTTGCTATATAAATTTACCTTTTAAGAGGAGGAAT | 0.499 | – | – | –
53 | ACAGACGAAGGAGCCGCAAAGAAGTTATTAAGAGATGAATAATCCCTTAATATAAATATCTCTCACTTATTTAAA | – | 0.727 | 0.431 | –
54 | ACAGACGAAGGAGCCGCAAAGAAGTTATTAAGTGATGAAGAATCCCTCAATATAAATATCTCTCACTTATTTAAA | – | 0.0943 | 0.0723 | –
55 | ACAGACGAAGGAGCCGCAAAGAAGTTATTAAGGGATGAATAATCCCTCAAAATAAATTTCTCTCACTTATTTAAA | – | – | 0.285 | –
56 | ACAGACGAAGGAGCCGCAAAGAAGTTATTAAGGGGTGAATAATCCCTCAATATAAATATCTCTCACTTATTTAAA | – | 0.652 | 0.741 | cleaved RNA product abundance [4]: 0.741
57 | ACAGACGAAGGAGCCGCAAATAAGTTATTAAGGGATGAATAATCCCTCACTATAAATATCTCTCACTTATTTAAA | – | 0.193 | 0.218 | –
